± gives the uncertainty stated by the source.
Experiment: amyloid nucleation score (Sup35N fusion, yeast selection) (log enrichment); library NNK2; higher = more nucleation; inactive = no reads after selection
In short: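 In psi-negative yeast, Sup35N fusions carrying peptides of 20 random codons were induced with 100 μM copper sulfate for 24 hours. The cells then grew 7 days at 30°C on medium lacking adenine and uracil, and plasmid inserts from input and output were Illumina-sequenced, excluding sequences with under 100 input reads. Nucleation score is the DiMSum log enrichment of output over input reads, centred on the mode score of non-aggregating sequences.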

AADKAICPVGGNTGHRSLGS and QTGCSITFLKFGRSAVSTVK are within error of each other in amyloid nucleation score: 0.691 ± 0.35 for the first, 0.378 ± 0.27 for the second.

LCNAKAS and YVRKVKA are within error of each other in amyloid nucleation score: -0.815 ± 0.64 for the first, 0.276 ± 1 for the second.

WVSRTNELFGPDRLWIDLWH and QVLIIPLWKNGLRTIIRWL are within error of each other in amyloid nucleation score: -0.01 ± 1 for the first, 0.106 ± 1 for the second.

Going from HLFPAGRSKTHAVFWFQGKG to MSWVVIQFTINIFRHKTF, the amyloid nucleation score rises from 0.412 ± 0.37 to 3.47 ± 0.11.

FMLAHVYVNV and SWTSIVQIVILCGFRQWLAR are within error of each other in amyloid nucleation score: -1.01 ± 0.78 for the first, 0.076 ± 0.39 for the second.

Compared with ISFYVCVIML, VCGFRAIVVVDPYWQPGKMA is lower in amyloid nucleation score: 7.433 ± 0.065 for the first, 2.42 ± 0.13 for the second.

First: ADSVLYNCVCRFSSVPQVLR
Second: YTFGTNWVCW
The amyloid nucleation score of the first is lower: -0.263 ± 0.31 for the first, 3.6 ± 0.062 for the second.

Compared with TLLVKSMGGSLET, SNSDIWHNARHPIDLATYC is lower in amyloid nucleation score: 4.11 ± 0.044 for the first, 0.293 ± 0.61 for the second.

Compared with SLGEGISFIVWCDGILLLGC, KSPCIVQTTILYNYMAVVIS is higher in amyloid nucleation score: -1.15 ± 0.76 for the first, 3.83 ± 0.12 for the second.

TCVRWYGNIW and NRLMVPSTNKFTCLPE are within error of each other in amyloid nucleation score: -0.424 ± 0.27 for the first, 0.056 ± 0.36 for the second.

First: SKMWTIRYFSLVRCLHGLLN
Second: TLTRGSISSIVDASWNMEKT
The amyloid nucleation score of the first is lower: -0.985 ± 0.45 for the first, -0.061 ± 0.46 for the second.

Going from AETTFNIENDKTYIIYDCAE to VITEADRLFHWIWKESLGEE, the amyloid nucleation score rises from -0.161 ± 0.39 to 4.858 ± 0.035.

LRTQSILYLRRMG and CRWDFVLWRFLCSIKKDWVT are within error of each other in amyloid nucleation score: -0.164 ± 0.32 for the first, -0.386 ± 0.79 for the second.

Going from TYGLWRFGTRGKDEFKSPNR to VYYLCVWF, the amyloid nucleation score falls from 6.16 ± 0.058 to -1.18 ± 0.41.

Going from FSYLAI to MLIDSWSVAIYICLLLIQVQ, the amyloid nucleation score rises from -0.896 ± 0.61 to 1.34 ± 0.13.

LNLFWKQSGTVRLDDGWRSV and SFPAGICPLMRLVYVNMGVG are within error of each other in amyloid nucleation score: 0.969 ± 0.74 for the first, -0.683 ± 1.1 for the second.

YNPSYLMELNEV and HNNGRSFYEKAMVDLGGAWL are within error of each other in amyloid nucleation score: -0.376 ± 0.55 for the first, 0.263 ± 0.64 for the second.

Going from FWSTTDILVGRTSHTGTVCV to VEWKRRNRVRVSRCELWFCF, the amyloid nucleation score rises from 0.118 ± 0.26 to 3.93 ± 0.087.

Compared with PEFITEFQALASFEYVMLRF, FNGVIFNGSSVNYYPFAHSF is higher in amyloid nucleation score: -1.23 ± 0.41 for the first, 5.035 ± 0.036 for the second.

Compared with YILRMLLRVLSVCVCSLQRS, KIYSTSYDNNTSYISCVWSH is higher in amyloid nucleation score: -0.091 ± 0.79 for the first, 6.708 ± 0.029 for the second.

First: SDLLFVLASLSCLQWNKDIA
Second: YIISYFLKMGSQ
The amyloid nucleation score of the first is lower: -0.457 ± 0.25 for the first, 4.95 ± 0.092 for the second.

Going from FKLFSFQVLYCSFDPCMHYT to FSQGYWLLMA, the amyloid nucleation score rises from -1.33 ± 0.62 to 0.305 ± 0.23.

NSRRQERWCFIMTLVDFDVV and VDSPKREVNMCVWLLRRKQR are within error of each other in amyloid nucleation score: -0.431 ± 0.4 for the first, 0.21 ± 0.34 for the second.

KKNSAVHVYF and NTYVRSRHMAMSYCRMQMCL are within error of each other in amyloid nucleation score: -1.01 ± 1.1 for the first, 0.141 ± 0.27 for the second.

VELSHFCTGRNSYSRRWISM and RNLTFYKTSPVGRC are within error of each other in amyloid nucleation score: 0.422 ± 0.65 for the first, 0.712 ± 0.4 for the second.

VVMMSGYILTSTSLVYYHFY and YHEVFLTLSIEWRMMLWVG are within error of each other in amyloid nucleation score: 0.005 ± 0.54 for the first, -0.318 ± 0.28 for the second.

VTPTEGCSVSHVRSRSLKNA and HIGCYAPASISPLLNGEH are within error of each other in amyloid nucleation score: -0.511 ± 0.49 for the first, 0.458 ± 0.8 for the second.

Compared with LMMKKTGCTQFISRYLVRIY, FSFLGDPKNERTVSWVMGHR is higher in amyloid nucleation score: -1.42 ± 1 for the first, 0.478 ± 0.32 for the second.

First: HSLFSIAWFVAQYMNFGPDN
Second: HAAGSLHMDYLV
The amyloid nucleation score of the first is higher: 3.1 ± 0.18 for the first, 0.122 ± 1.1 for the second.

ISTIWFRLQTGARKTRLLFD and ILSCVARGCYYTTL are within error of each other in amyloid nucleation score: -0.735 ± 0.79 for the first, -1.38 ± 1.1 for the second.

Compared with KGYGIHFCFRCMDSRCGVS, SIRRCPVKFINKRLVVYLKV is lower in amyloid nucleation score: 0.97 ± 0.28 for the first, -0.88 ± 0.55 for the second.

LRCFSHRPCPKNNIVF and LGLCHMLLSDAGWRVRCRGK are within error of each other in amyloid nucleation score: 0.602 ± 0.81 for the first, 0.276 ± 1 for the second.

Compared with YFCRMMCLNRWIGRLLFRCN, NILVLLVTGVTLGR is higher in amyloid nucleation score: 0.775 ± 0.62 for the first, 4.11 ± 0.059 for the second.

First: FWCCANRSLVISLI
Second: LNYCHILSMYGNIAIIRSQF
The amyloid nucleation score of the first is lower: -0.907 ± 0.4 for the first, 4.48 ± 0.048 for the second.

Compared with LYFMCNFLTCSL, WKVCLVYDKTFWHVEVEGES is lower in amyloid nucleation score: 7.893 ± 0.057 for the first, 0.042 ± 0.8 for the second.

SCYIDRTRYWDGYFLLCSMD and KTGVGTYIPQWDCNGHEMVS are within error of each other in amyloid nucleation score: 0.949 ± 0.74 for the first, 0.423 ± 0.35 for the second.

LWFLVFMDMVRRWRGNHRGE and WTGSFRMSRQHMWNSTSFQM are within error of each other in amyloid nucleation score: -0.656 ± 1.1 for the first, -0.215 ± 0.5 for the second.

First: FAVFPLVPGRGPGLFENNRW
Second: SPPLYARHCYILERITTDRM
The amyloid nucleation score of the first is higher: -0.104 ± 0.74 for the first, -1.73 ± 0.62 for the second.

Compared with RSLIFLNWGYSV, NQYMFFGSHRD is lower in amyloid nucleation score: 3.59 ± 0.056 for the first, 0.424 ± 0.49 for the second.

VPHHPRVGSLPIHNSAAPYM and TPATVEYGDNCVYDY are within error of each other in amyloid nucleation score: -0.683 ± 0.45 for the first, -0.987 ± 0.44 for the second.

With GLWLRFVCSIYFLMYIVHIN the amyloid nucleation score was “inactive”.
In the case of LLATSWSVLEDLYAGNDLYD, the amyloid nucleation score is reported as “inactive”.
For ILIMRKENGCLRELCFFCRA, the amyloid nucleation score was “inactive”.
For ALNYVSCWNALRKFRESVAH, the amyloid nucleation score was “inactive”.
With LSNKRKVSSLLM the amyloid nucleation score was “inactive”.
With RRGNLGDAMNNMARFCSYSF the amyloid nucleation score was “inactive”.

Source: the supplement of paper PMC12042874
